Biological target: the molecule itself
Assay: cryo-EM structure; Dr-VSP (C302S) in MSP2N2 lipid nanodiscs (Dr-VSP:MSP2N2:lipid 1:4:400), 20 mM Tris, 150 mM NaCl, 5 mM EGTA, pH 8, 5.6 mg/ml; class of particles with the cytoplasmic domain as a dimer, 3.0 Å

B1: Danio rerio voltage-sensing phosphatase (Dr-VSP) with the active site cysteine mutated to serine (C302S) (enzyme, UniProt Q4V9E4 1-511, looked up)
chain: MTSVHFNPGLDSKEVNGNSVKEEAEVQIDDGKEETKDPDTMYHQVRKKITPFVMSFGFRVFGLVLIILDIIMVIVDLSLSEKSRDVGGAPETVSLVISFFFLIDVLLRVYVEGFKVYFSSKLNIVDACIVVITLVVTMIYAFSDFSGASLIPRVVTFLRSLRILILVRIFRLASQKRELEKVTRRMVSENKRRYQKDGFDLDLTYVTERVIAMSFPSSGKQALYRNPIREVVRFLDTKHMDHYKVFNLCSEKGYDPKFFHYRVERVMIDDHNVPSLDDMLRYTACVRDWMAADSRNVIAIHSKGGKGRTGTMVCTWLIDSDQFESAQESLDYFGERRTDKSMSSKFQGVETPSQSRYVGYYEIMKNQYNRQLPPRKSLKIKSIRIHSIAGVGKGNGSDLKLKIIVKHELVFQCVCAKQHNCTVFPDTGSNAVVISLQDGPIVTGDVKVMFESSAGLPKGYEDCPFYFWFNTSFVENYRLFLSREELDNPHKPKTWDIYKEDFGVTLSFTEP
notes: Danio rerio voltage-sensing phosphatase (Dr-VSP), full-length construct in a modified pPICZ-B vector, with C302S; only the cytoplasmic domain is resolved in the dimer map; The methods name the full-length Dr-VSP construct; also called Dr-VSP (C302S); Danio rerio VSP C302S; not shown: eGFP, C-terminal, cleaved; His10, C-terminal, cleaved
  stoichiometry N: 2

Source: publication PMC11289409, “Coupling sensor to enzyme in the voltage sensing phosphatase” (Nature Communications, 2024)
